Laboratory results taken from paper PMC5584245.
Where two headings read alike, the source gives them in different places.

Legend:
[1] = target: hG7-BM1 (hVH-B1, hVL-B1) (human); experiment: SPR; Biacore X100; CD24-GST flowed over immobilized antibody; 1:1 binding model; procedure as in ref. 45
[2] = target: hG7-BM1 (hVH-B1, hVL-B1) (human); experiment: as above; remark: listed apart in the source

Sequence of hG7-BM1 (hVH-B1, hVL-B1) (human) (heavy, as listed by the source, chain 1 of 2): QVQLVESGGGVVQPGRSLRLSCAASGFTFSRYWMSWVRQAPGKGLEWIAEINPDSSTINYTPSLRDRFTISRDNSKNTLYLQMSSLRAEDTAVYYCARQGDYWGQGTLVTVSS
Sequence of hG7-BM1 (hVH-B1, hVL-B1) (human) (light, as listed by the source, chain 2 of 2): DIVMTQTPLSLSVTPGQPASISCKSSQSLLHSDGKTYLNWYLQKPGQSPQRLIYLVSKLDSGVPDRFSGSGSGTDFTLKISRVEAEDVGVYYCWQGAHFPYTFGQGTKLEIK

Kd [1]: 0.164 nM
Kd [2]: 1.64 nM
koff [2]: 0.000764 s⁻¹
kon [2]: 465000 M⁻¹ s⁻¹
Binder: SETTTGTSSNSSQSTSNSGLAPNPTNATTKAAG (natural protein) [CD24-GST]
